Source: article PMC3386633

Legend:
[1] = target: HOL-18, 18 kDa chitotriose-binding lectin from Halichondria okadai (Halichondria okadai); experiment: SEC; gel permeation chromatography on Superdex 75 (1.0 x 32 cm), HPLC, 0.5 mL/min, 20 ug purified lectin, native conditions, calibrated with marker proteins
[2] = target: porcine stomach mucin (porcine); experiment: SPR; PSM coupled to a CM5 chip (5800 RU), HOL-18 as analyte in HBS buffer, 20 uL/min, 25 °C, BIAcore 3000, 1:1 model, BIAevaluation 3.0; bound lectin removed with 200 mM D-GlcNAc
[3] = target: HOL-18, 18 kDa chitotriose-binding lectin from Halichondria okadai (Halichondria okadai); experiment: SDS-PAGE after timed heat treatment; purified lectin in sample buffer (0.2% SDS, with or without 2% 2-mercaptoethanol) heated at 70 °C for 5-60 min; the 36 kDa dimer was retained up to 15 min and dissociated within 20-30 min
[4] = target: HOL-18, 18 kDa chitotriose-binding lectin from Halichondria okadai (Halichondria okadai)

HOL-18, 18 kDa chitotriose-binding lectin from Halichondria okadai (natural protein)
stoichiometry N [1]: 4
Kd [2]: 4.4 µM
koff [2]: 0.0061 s⁻¹
kon [2]: 1400 M⁻¹ s⁻¹
stoichiometry N [3]: 2

bovine submaxillary mucin (natural protein)
minimum inhibitory concentration of the hemagglutination of human type A erythrocytes by HOL-18 (16 HA units) [4]: 125 µg/mL

porcine stomach mucin (natural protein)
minimum inhibitory concentration of the hemagglutination of human type A erythrocytes by HOL-18 (16 HA units) [4]: 10 µg/mL

B1: fetuin (natural protein)
chain: IPLDPVAGYKEPACDDPDTEQAALAAVDYINKHLPRGYKHTLNQIDSVKVWPRRPTGEVYDIEIDTLETTCHVLDPTPLANCSVRQQTQHAVEGDCDIHVLKQDGQFSVLFTKCDSSPDSAEDVRKLCPDCPLLAPLNDSRVVHAVEVALATFNAESNGSYLQLVEISRAQFVPLPVSVSVEFAVAATDCIAKEVVDPTKCNLLAEKQYGFCKGSVIQKALGGEDVRVTCTLFQTQPVIPQPQPDGAEAEAPSAVPDAAGPTPSAAGPPVASVVVGPSVVAVPLPLHRAHYDLRHTFSGVASVESSSGEAFHVGKTPIVGQPSIPGGPVRLCPGRIRYFKI
modifications: O-linked oligosaccharides and sialyl N-acetyllactosamine (Neu5Acα2-3/6Galβ1-4GlcNAc) chains in complex-type N-linked glycans
minimum inhibitory concentration of the hemagglutination of human type A erythrocytes by HOL-18 (16 HA units) [4]: 125 µg/mL
